{"source": "paper PMC3386213", "about": "(Molecular Biology of the Cell, 2012)", "target": "the molecule itself", "experiment": "cross-linking", "data": [{"protein": "HA-tagged KCTD6 N-terminal BTB domain (domain or fragment) MDNGDWGYMMTDPVTLNVGGHLYTTSLTTLTRYPDSMLGAMFGGDFPTARDPQGNYFIDRDGPLFRYVLNFLRTSELTLPLDFKEFDLLRKEADFYQIEPLIQCLNDPKPLYPMDTFEEVVELSSTRKLSKYSNPVAVIITQLTITT", "values": [{"measurement": "stoichiometry N", "value": 2}]}]}
